This is an account of results in patent US20230190870A1, “Method for Treating Lysosomal Storage Diseases with Histatin Peptides” (THE BOARD OF TRUSTEES OF THE UNIVERSITY OF ILLINOIS, priority 2020, published 2023).

Series [1] has as its target T1, Synthetic TMEM97 (108-176) (Homo sapiens, UniProt Q5BJF2).
T1 construct: Three peptides, TMEM97 (108-176), TMEM97 (108-143) and TMEM97 (144-176), were synthesized; made in house; host or cells: chemical solid-phase synthesis (Fmoc, Wang resin)
As to the kind of experiment: Surface plasmon resonance, immobilized synthetic TMEM97 (108-176). The series is classed as binding. To be noted: SPR. The method, then:
(§1) Surface Plasmon Resonance (SPR). Recombinant full-length TMEM97 (also called MAC30, from HEK293 cells) and GST-TMEM97 (108-176, recombinant GST-C terminal from wheat germ) proteins were purchased from OriGene (Rockville, Md.) and Abnova (Taipei City, Taiwan), respectively. Three peptides, TMEM97 (108-176), TMEM97 (108-143) and TMEM97 (144-176), were synthesized. All proteins and peptides were initially prepared in HBS buffer containing 10 mM HEPES, pH 7.4, 150 mM NaCl, and 0.05% surfactant P20. The CM5 sensor surface was first activated by 1-ethyl-3-(3-dimethylaminopropyl) carbodiimide hydrochloride (EDC)/N-hydroxy succinimide (NHS) mixture using a Biacore T200 or Biacore 8K instrument (GE Healthcare). […] Flow channels 1 and 3 were used as references.
(§2) The three synthesized peptides were diluted to 50 μg/mL in 10 mM sodium acetate at pH 4.0 and immobilized to flow channels 2, 3 and 4, respectively, on another sensor chip. The unmodified surfaces on a flow channel 1 were used as a reference control. Histatin solutions with a series of increasing concentrations (0.78-25 μM at 2-fold dilution) were applied to all four channels at a 30 μL/minute flow rate at 25° C. The data were double-referenced with reference channel and zero concentration responses, and reference subtracted sensorgrams were fitted with 1 to 1 Langmuir kinetic model using a Biacore T200 evaluation software V3.0 or Insight evaluation software. The equilibrium dissociation constants ([…]) were determined from two rate constants (KD=kd/ka).
(§3) To determine more precisely which segment of TMEM97 is necessary for binding of Hst1, multiple synthetic fragments of TMEM97 were generated (Table 6) and binding to Hst1 was tested using SPR. […] Smaller fragments of the C-terminal of TMEM97 were then constructed to represent the (predicted) luminal (108-143) and cytoplasmic (144-176) exposed segments of the C-terminus of TMEM97 based on modeling experiments previously described. […] SPR results for Hst1 were confirmed using ITC as an orthogonal analytical method.
(§4) To determine the region(s) of Hst1 that mediate binding to TMEM97, SPR testing was performed with various Hst1 fragments and either recombinant TMEM97 (GST-tagged, wheat-germ derived, C-terminal fragment TMEM97 (108-176)) or synthesized TMEM97 (TMEM97 (108-176), TMEM97 (108-143) and TMEM97 (144-176)).

Series [2] addresses T2, Synthetic TMEM97 (108-143) (Homo sapiens, UniProt Q5BJF2).
T2 construct: made in house; host or cells: chemical solid-phase synthesis (Fmoc, Wang resin)
The series is described as follows: Surface plasmon resonance, immobilized synthetic TMEM97 (108-143). The series is classed as binding. To be noted: SPR. The method, then: as §1, §2, §3, §4

For series [3], the target named is T3, Synthetic TMEM97 (144-176) (Homo sapiens, UniProt Q5BJF2).
T3 construct: made in house; host or cells: chemical solid-phase synthesis (Fmoc, Wang resin)
As to the kind of experiment: Surface plasmon resonance, immobilized synthetic TMEM97 (144-176). The series is classed as binding. The settings on record: SPR. As for the experimental part:
as §1, §2, §3, §4

In a further series the target is T4, GST-TMEM97 (108-176) (Homo sapiens, UniProt Q5BJF2).
T4 construct: GST-TMEM97 (108-176, recombinant GST-C terminal from wheat germ); purchased Abnova (Taipei City, Taiwan); host or cells: wheat germ (cell-free)
As to the kind of experiment: Surface plasmon resonance, immobilized GST-TMEM97 (108-176). The series is classed as binding. To be noted: SPR. As for the experimental part:
as §1, §2, §4

For series [4], the target named is T5, full-length recombinant TMEM97 (HEK293 cells) (Homo sapiens, UniProt Q5BJF2).
T5 construct: Recombinant full-length TMEM97 (also called MAC30, from HEK293 cells); purchased OriGene (Rockville, Md.); host or cells: HEK293 cells
As to the kind of experiment: Surface plasmon resonance, immobilized full-length TMEM97. The series is classed as binding. To be noted: SPR. In general terms: SPR reads the build-up and loss of mass on a sensor chip optically.
Procedure: The three synthesized peptides were diluted to 50 μg/mL in 10 mM sodium acetate at pH 4.0 and immobilized to flow channels 2, 3 and 4, respectively, on another sensor chip. The unmodified surfaces on a flow channel 1 were used as a reference control. […] The data were double-referenced with reference channel and zero concentration responses, and reference subtracted sensorgrams were fitted with 1 to 1 Langmuir kinetic model using a Biacore T200 evaluation software V3.0 or Insight evaluation software. The equilibrium dissociation constants (K&) were determined from two rate constants (KD=kd/ka).

A further series has as its system HCE cells. As to the kind of experiment: Immunofluorescence imaging of internalization and localization. The settings on record: 24 hours after exposure. The series is classed as cell-based, human. The method, then:
Immunofluorescence Imaging. HCE cells were seeded on glass coverslips (Fisher Scientific Co.; Pittsburgh, Pa.) within a 6-well plate at 3×10^5 (cells/well) seeding density. […] HCE cells were then fixed in 3.7% paraformaldehyde, permeabilized with phosphate-buffered saline (PBS) containing 0.2% TRITON™ X-100 for 5 minutes, and washed three times for 5 minutes each time in PBS. For blocking, cells were and incubated at room temperature for 30 minutes with 5% bovine serum albumin (BSA) and 5% normal goat serum in PBS. For the Endoplasmic Reticulum (ER) staining, a Cytopainter ER staining kit (Abcam; Cambridge, Mass.) was used, following the manufacturer's instructions. After washing with 1×Assay buffer, cells were incubated with Green Detection Reagent to cover the monolayer of cells. For the detection of Hst1 and TMEM97, mouse anti-Hst1 antibody (Abcam; Cambridge, Mass.), rabbit primary antibody against Hst1 (Mybiosource; San Diego, Calif.), and rabbit anti-TMEM97 antibody (Novus Bio.; Littleton, Colo.) were used. Cells were incubated overnight at 4° C. with primary antibodies, washed three times for 5 minutes each time in PBS before incubation with secondary antibodies for 30 minutes. Cells were then counterstained with 1 μg/mL 4′,6-diamidino-2-phenylindole (DAPI) solution in PBS for 3 minutes, then washed three times with PBS containing 0.05% TRITON™ X-100 for 5 minutes each time, twice with PBS for 5 minutes each time, and once with distilled water for 10 seconds. The cells were mounted in Fluoro gel with Tris buffer (Electron Microscopy Sciences; Hatfield, Pa.) and observed under a confocal microscope (Zeiss LSM 710 Confocal Microscope; Oberkochen, Germany) using a 40×objective. Fluorescent dye sold under the tradename ALEXA FLUOR® 488 NHS Ester (Molecular Probes; Carlsbad, Calif.) was used for making Alexa-488 coupled synthetic Hst1.
Transfection/Knock-Down of TMEM97. Sub-confluent monolayers of HCE cells in grown in 35-mm six-well plates were transfected with reaction mixtures composed of 100 pmol of small interfering RNA (siRNA) to TMEM97 (Santa Cruz Biotechnology; Dallas, Tex.) for 48 hours and 5 μL of transfection reagent sold under the tradename LIPOFECTAMINE® 2000 (Invitrogen; Carlsbad, Calif.) in culture medium sold under the tradename OPTI-MEMO media (Gibco Life Technologies; Grand Island, N.Y.). Complexes were incubated for 20 minutes at 24° C. and then added to cells at 37° C. Incubation was continued for 24 to 48 hours at 37° C. in 5% CO2. Knock-down (KD) of TMEM97 was confirmed by western blot analysis using a rabbit anti-TMEM97 antibody (Novus Bio.; Littleton, Colo.). […]

A short description of series [5]: Circular dichroism secondary structure analysis (DichroWeb). The class given is physicochemical. As for the experimental part:
Circular Dichroism (CD). CD analysis was performed on a Jasco 815 CD spectrometer at room temperature. TMEM97 (108-176) and Hst1 full-length peptides were prepared as 10 mM stock in 25% DMSO and water, respectively, and diluted to 0.15 mg/mL final concentration in 10 mM […] buffer. A total of 400 μL of each sample was added into a 1 mm quartz sample cell, and CD spectra were recorded from 260 nm to 190 nm wavelength. Data points were measure in 0.5 nm wavelength step at a scanning speed of 100 nm/minute. A total of five spectra were acquired for each sample and averaged. […] buffer without peptide was used as a control curve, which was subsequently subtracted from the CD spectra of peptide samples. The resulting buffer control subtracted CD intensity row data in millidegrees were submitted to DichroWeb and fitted with multiple embedded models and converted to mean residue ellipticity.
Subsequently, the hypothesis that interaction between Hst1 and TMEM97 could affect the structure of each protein was tested. Also, the secondary structure of Hst1 and TMEM97 was tested in solution using CD measurements. It was noted that Hst1 alone is mostly disordered (over 50%) with some degree of β-strand, while TMEM97 (108-176) contains some α-helical and β-strand regions with ˜34% disordered regions. According to CD spectra comparison, there seemed to be more secondary structures formed upon Hst1 binding to TMEM97 (108-176).
(In general: CD spectra are sensitive to the conformation of chiral molecules.)

For series [6], the target named is T6, Synthetic TMEM97 (144-176) peptide.
T6 construct: Synthetic peptide; also called (predicted) cytoplasmic segment
T6 peptide: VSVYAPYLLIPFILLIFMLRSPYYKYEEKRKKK
The series is described as follows: SPR.

For series [7], the target named is T7, Synthetic TMEM97 (108-176) peptide.
T7 construct: Synthetic peptide; also called full C-terminal synthetic TMEM97
T7 peptide: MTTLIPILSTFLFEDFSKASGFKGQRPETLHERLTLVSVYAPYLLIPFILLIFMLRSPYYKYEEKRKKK
As to the kind of experiment: SPR.

Setting [8] is: CD, fraction of secondary structure.

Square brackets hold non-standard residues; d marks the D form. Ends that are not written are not given here. Peptide text beside a SMILES is read from it. pS = N[C@@H](COP(=O)(O)O)C(=O)O

T5 sequence (Q5BJF2 whole entry): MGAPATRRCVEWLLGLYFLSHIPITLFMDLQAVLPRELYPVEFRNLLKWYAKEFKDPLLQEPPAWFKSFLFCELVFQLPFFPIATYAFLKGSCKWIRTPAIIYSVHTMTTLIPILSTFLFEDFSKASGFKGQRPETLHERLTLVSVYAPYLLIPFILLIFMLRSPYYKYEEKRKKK

As to “Hst1(1-14): Hst1 fragment, residues 1-14 (DSHEKRHHGYRRKF)”, the KD entry in [1] and in [3] was “No binding” each time. Moreover, in series [2], the KD / binding result is listed as “No binding”.

Turning to “Hst1(20-32): Hst1 fragment, residues 20-32 (SHREFPFYGDYGS)”, the KD entry in series [3] is “No binding”.

In the case of `N=C(N)NCCC[C@H](NC(=O)[C@H](Cc1ccc(O)cc1)NC(=O)CNC(=O)[C@H](Cc1c[nH]cn1)NC(=O)[C@H](Cc1c[nH]cn1)NC(=O)[C@H](CCCNC(=N)N)NC(=O)[C@H](CCCCN)NC(=O)[C@H](CCC(=O)O)NC(=O)[C@H](Cc1c[nH]cn1)NC(=O)[C@H](COP(=O)(O)O)NC(=O)[C@@H](N)CC(=O)O)C(=O)N[C@@H](CCCNC(=N)N)C(=O)N[C@@H](CCCCN)C(=O)N[C@@H](Cc1ccccc1)C(=O)N[C@@H](Cc1c[nH]cn1)C(=O)N[C@@H](CCC(=O)O)C(=O)N[C@@H](CCCCN)C(=O)N[C@@H](Cc1c[nH]cn1)C(=O)N[C@@H](Cc1c[nH]cn1)C(=O)O` [Hst1(1-19)] (H-D[pS]HEKRHHGYRRKFHEKHH-OH), the “% Rmax” value on GST-TMEM97 (108-176) is on record as “(% Rmax = 32%)”; in [1], “(% Rmax = 19%)”; in [3] it was “(% Rmax = 16%)”.

As to `N=C(N)NCCC[C@H](NC(=O)[C@H](Cc1ccc(O)cc1)NC(=O)CNC(=O)[C@H](Cc1c[nH]cn1)NC(=O)[C@H](Cc1c[nH]cn1)NC(=O)[C@H](CCCNC(=N)N)NC(=O)[C@H](CCCCN)NC(=O)[C@H](CCC(=O)O)NC(=O)[C@H](Cc1c[nH]cn1)NC(=O)[C@H](COP(=O)(O)O)NC(=O)[C@@H](N)CC(=O)O)C(=O)N[C@@H](CCCNC(=N)N)C(=O)N[C@@H](CCCCN)C(=O)N[C@@H](Cc1ccccc1)C(=O)N[C@@H](Cc1c[nH]cn1)C(=O)N[C@@H](CCC(=O)O)C(=O)N[C@@H](CCCCN)C(=O)N[C@@H](Cc1c[nH]cn1)C(=O)N[C@@H](Cc1c[nH]cn1)C(=O)N[C@@H](CO)C(=O)N[C@@H](Cc1c[nH]cn1)C(=O)N[C@@H](CCCNC(=N)N)C(=O)N[C@@H](CCC(=O)O)C(=O)N[C@@H](Cc1ccccc1)C(=O)N1CCC[C@H]1C(=O)N[C@@H](Cc1ccccc1)C(=O)O` [Hst1(1-26)] (H-D[pS]HEKRHHGYRRKFHEKHHSHREFPF-OH), the entries for the “% Rmax” value (on GST-TMEM97 (108-176); in series [1]; in series [3]) were “(% Rmax = 24%)”, “(% Rmax = 8%)” and “(% Rmax = 4%)”, respectively. The KD / binding entry in [2] was “No binding”.

Turning to “HYHKFHRYYDPGSNLYKEHNHGFHHGYKDEFRREpSRDS (HYHKFHRYYDPGSNLYKEHNHGFHHGYKDEFRRE[pS]RDS) [reference compound]”, the “% Rmax” value is recorded as 8% in series [4] and 5% in the series with GST-TMEM97 (108-176). The KD result in series [4] (25° C., 1 to 1 Langmuir kinetic model) is “No binding”; with GST-TMEM97 (108-176) it was “No binding”.

As for “Hst1(15-38): Hst1 fragment, residues 15-38 (HEKHHSHREFPFYGDYGSNYLYDN)”, the KD result (in the series with GST-TMEM97 (108-176); in [1]; in series [3]) was “No binding” each time.

“fluorescent dye-coupled synthetic Hst1: synthetic Hst1 coupled with ALEXA FLUOR 488 NHS Ester (D[pS]HEKRHHGYRRKFHEKHHSHREFPFYGDYGSNYLYDN; also: coupled with Alexa Fluor 488 NHS ester, site not given here; UniProt P15515 20-57, looked up)”: in the series on HCE cells, the internalization into cells result is given as “internalized into HCE cells”.

B1: MTTLIPILSTFLFEDFSKASGFKGQRPETLHERLTLVSVYAPYLLIPFILLIFMLRSPYYKYEEKRKKK (peptide)
chain: MTTLIPILSTFLFEDFSKASGFKGQRPETLHERLTLVSVYAPYLLIPFILLIFMLRSPYYKYEEKRKKK
Turning to B1, the disordered regions in series [5] (CD in solution) is listed as roughly 34%. In series [5] (setting [8]), this molecule came in with a Helix of 0.14, a Strand of 0.31, a Turns of 0.21 and an Unordered of 0.34.

SHREFPFYGDYGS (Fragment of Hst1) [Hst1(20-32)]: the binding result in series [6] is reported as “no binding”.

As for HEKHHSHREFPFYGDYGSNYLYDN (Fragment of Hst1) [Hst1(15-38)], the binding result in [6] and in series [7] was “no binding” each time.
